PMC10845952

Legend:
[1] = target: MecA fused to the RenG N-terminal domain (1-155) (S. mutans) (UniProt Q8DW33); assay: split reporter (BiFC, NanoBiT)
[2] = target: RNase J1 fused to the RenG N-terminal domain (NTD1, 1-155) (S. mutans); assay: split reporter (BiFC, NanoBiT); RenG split luciferase complementation assay (SLCA) in live S. mutans at mid-log phase, coelenterazine-h, normalised to OD600; signal relative to unfused fragments; relative binding affinity = SLCA value divided by the value of the whole-RenG chimera of the less abundant partner

Sequence of MecA fused to the RenG N-terminal domain (1-155) (S. mutans) (Q8DW33 whole entry, the tested form may be a part): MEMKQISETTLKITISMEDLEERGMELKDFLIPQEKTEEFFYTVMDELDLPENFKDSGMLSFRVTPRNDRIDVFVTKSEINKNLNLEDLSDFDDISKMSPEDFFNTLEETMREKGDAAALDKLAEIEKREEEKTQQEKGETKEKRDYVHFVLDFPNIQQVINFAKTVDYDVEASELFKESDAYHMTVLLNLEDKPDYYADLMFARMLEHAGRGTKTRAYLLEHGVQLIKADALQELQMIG

relative binding affinity (%) [2]	Substance	relative binding affinity (%) [1]
	ComX fused to the RenG C-terminal domain (156-314) (natural protein)	6.3%
	GyrA fused to the RenG C-terminal domain (156-314) (natural protein)	12.9%
	PcrA fused to the RenG C-terminal domain (156-314) (from UniProt Q8DTY6 1-733) (natural protein)	6.36%
97.8%	RNase J2 fused to the RenG C-terminal domain (CTD1, 156-314) (natural protein)	
	SpaP fused to the RenG C-terminal domain (156-314) (from UniProt P23504 998-1532) (natural protein)	1.72%
